Assay [1] deals with TnMUC1 peptide (fully glycosylated), biotinylated. Briefly: SPR (Biacore T200): biotinylated TnMUC1 peptide batch 65-1 captured on CAP chip, scFv as analyte, 1:1 fit, average.
The target of assay [2] is TnMUC1 peptide 1 (partially glycosylated), biotinylated. The experiment in a line: SPR (Biacore T200): biotinylated TnMUC1 peptide 1 (96-1) captured on CAP chip, scFv as analyte, 1:1 fit, average. For orientation: Surface plasmon resonance follows binding to a sensor surface in real time, without labels.
The target in assay [3] is STnMUC1 peptide, biotinylated. The experiment in a line: SPR (Biacore T200): biotinylated STnMUC1 peptide (35-1) captured on CAP chip, scFv as analyte, 1:1 fit, average.
The target of assay [4] is STnMUC1 peptide, biotinylated. Briefly: SPR (Biacore T200): biotinylated STnMUC1 peptide (35-1) captured on CAP chip, scFv as analyte.

STnMUC1 peptide, biotinylated, sequence (main, as listed by the source): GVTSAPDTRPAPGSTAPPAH

As a reminder, the Kd is the equilibrium constant for the complex coming apart. Higher therefore signals a looser complex. The term koff denotes a measure of how fast the partners let go of each other. A higher koff goes with a short-lived complex. A word on the kon: it is a measure of how fast the partners come together. “murine 5E5 scFv protein (23-P1) obtained from Creative Biolabs”: the Kd was determined as 26.6 nM in assay [1], 28.7 nM in assay [2], 84.1 nM in assay [3] and 84 nM in assay [4]. Further, the koff in assay [1] worked out at 0.000845 s⁻¹; in assay [2] it was 0.000803 s⁻¹; in assay [3], 0.000282 s⁻¹. In assay [3], this substance had a kon of 3350 M⁻¹ s⁻¹.
